# Data: US20140105914A1 (ANTITOPE, published 2014)
# T1: Recombinant CTLA4-fusion protein comprising the extracellular domain of human CTLA4 fused to the human IgG1 … (human, UniProt P16410 36-161)
# T1 construct: extracellular domain; Bought reagent; Coated on ELISA plates at 0.5 ug/ml; also called CTLA4-Fc; CTLA4-Ig; not shown: human IgG1 constant domain (Fc); a Factor Xa site lies between CTLA4 and Fc, since the fusion was cle
# T1 sequence (looked up): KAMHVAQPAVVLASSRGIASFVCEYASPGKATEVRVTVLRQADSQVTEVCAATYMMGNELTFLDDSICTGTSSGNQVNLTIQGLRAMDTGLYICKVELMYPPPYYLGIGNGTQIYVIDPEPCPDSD
# T2: human CTLA4 expressed on the surface of T-cells (human, UniProt P16410 36-223)
# T2 construct: whole, on cells; For flow cytometry the cells were fixed and treated with saponin; Also used as the target in the PBMC functional assays; also called CTLA4 expressed on T cells
# T2 sequence (looked up): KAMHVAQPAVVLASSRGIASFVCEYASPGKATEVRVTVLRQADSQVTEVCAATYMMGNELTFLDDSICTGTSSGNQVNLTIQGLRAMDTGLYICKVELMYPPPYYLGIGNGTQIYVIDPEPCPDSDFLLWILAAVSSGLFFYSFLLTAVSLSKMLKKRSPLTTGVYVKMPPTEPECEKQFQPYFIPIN
# What was measured:
# [1] = biological target: T1, Recombinant CTLA4-fusion protein …; experiment: ELISA on coated CTLA4-Fc
# [2] = biological target: T2, human CTLA4 expressed on the surface of …; experiment: flow cytometry on stimulated human CD4+ T cells, antibody at 5 ug/ml
# Procedure: In order to determine whether the lead monoclonal antibodies bound to CTLA4 expressed on the surface of T-cells, a flow cytometric analysis was performed. Human peripheral T cells were isolated from human PBMC (peripheral blood mononuclear cells) and stimulated to enhance expression of CTLA4. CD4+ cells were purified from PBMC using a CD4⁺ T Cell Isolation Kit (Miltenyi Biotec, Bisley, UK), plated out in a 24 well plate (1×10⁶ cells/well) in AIM-V Medium (Invitrogen, Paisley, UK) and incubated at 37° C. overnight. Cells were stimulated with lonomycin (1 μg/ml) and PMA (phorbol 12-myristate 13-acetate) (50 ng/ml) and incubated 4 h at 37° C. Cells were washed once in AIM-V medium, fixed in PBS containing 2% formaldehyde for 15 min, and resuspended in FACS buffer (D-PBS containing 1% BSA, 0.05% sodium azide and 0.1% Saponin) at 2×10⁶ cells/ml and incubated 30 min at 4° C.
# 2×10⁵ cells were stained using either a 1 in 10 dilution of anti-CTLA4-PE conjugated antibody (BNI3) (Abcam, Cambridge, UK) as a positive control or with 5 μg/ml of individual anti-CTLA4 monoclonal antibodies together with a 1 in 50 dilution of anti-mouse IgG-PE conjugated antibody (Sigma). Mouse IgG (Sigma) was also included as separate controls for the different murine isotypes present within the lead monoclonal antibodies. […] Instrument settings were determined by analysis of relevant isotype control antibodies. […]
# [3] = biological target: T1, Recombinant CTLA4-fusion protein …; experiment: CTLA4 binding ELISA on coated CTLA4-Fc
# [4] = biological target: T2, human CTLA4 expressed on the surface of …; experiment: flow cytometry on CTLA4 expressed on T cells
# [5] = biological target: T2, human CTLA4 expressed on the surface of …; experiment: cell-based or functional assay
Binder,binding result [1],binding result [2],binding result [3],binding result [4],"IFN-gamma secretion in human mixed lymphocyte reaction (T cell activation), antibody at 150 ug/ml, compared to MDX010 [5]"
"murine monoclonal antibody 8H5 (subclone 8H5-1B1) (antibody, V domains shown, Mouse hybridoma antibody with a kappa light chain; also called 8H5-1A1) VH: QVQLQQSGDDLVKPGASVKLSCKASGYTFTSYWINWIKQRPGQGLEWIGRIAPGSGTTYYNEVFKGKATLTVDKYSSTAYIQLSSLSSEDSAVYFCARGDYGSYWGQGTLVTVSS VL: QIVLTQSPAIMSASPGEKVTMTCSASSSISYMHWFQQKPGTSPKRWIYDTSKLASGVPARFSGSGSGTSYSLTINSMEAEDAATYYCHQRTSYPLTFGAGTKLELK",binds,binds,–,–,–
"chimeric 3B10 human IgG1 antibody (antibody, V domains shown, Biotinylated when used as the labelled competitor in Example 6., Gamma 4 versions were also cloned; also called 3B10 chimeric antibody; parental 3B10 chimeric antibody) VH: EVQLQQFGAELVKPGASVKMSCKASGYTFTDYNMDWVRQSHGKSLEWIGNINPNSESTSYNQKFKGKATLTVDKSSSTAYMELRSLTSDDTAVYYCTRDGNRYDAWFAYWGQGTLVTVSS VL: QIVLTQSPAIMSASPGEKVTMTCSASSSVTYMHWFQQKPGTSPKLWIYSTSILASGVPARFSGSGSGTSYSLTISRMEAEDAATYYCQQRTSYPLTFGTGTKLELK",–,–,binds,binds,–

# Next, values leading:
binding result [1],binding result [2],binding result [3],binding result [4],"IFN-gamma secretion in human mixed lymphocyte reaction (T cell activation), antibody at 150 ug/ml, compared to MDX010 [5]",Binder
–,–,binds,binds,–,"chimeric 8H5 human IgG1 antibody (antibody, V domains shown, Biotinylated when used as the labelled competitor in Example 6., Gamma 4 versions were also cloned; also called 8H5 chimeric antibody; h8H5 parent IgG1) VH: QVQLQQSGDDLVKPGASVKLSCKASGYTFTSYWINWIKQRPGQGLEWIGRIAPGSGTTYYNEVFKGKATLTVDKYSSTAYIQLSSLSSEDSAVYFCARGDYGSYWGQGTLVTVSS VL: QIVLTQSPAIMSASPGEKVTMTCSASSSISYMHWFQQKPGTSPKRWIYDTSKLASGVPARFSGSGSGTSYSLTINSMEAEDAATYYCHQRTSYPLTFGAGTKLELK"
binds,binds,–,–,–,"murine monoclonal antibody 3B10 (subclone 3B10-4F7) (antibody, V domains shown, Mouse hybridoma antibody with a kappa light chain; also called 3B10-6E3) VH: EVQLQQFGAELVKPGASVKMSCKASGYTFTDYNMDWVRQSHGKSLEWIGNINPNSESTSYNQKFKGKATLTVDKSSSTAYMELRSLTSDDTAVYYCTRDGNRYDAWFAYWGQGTLVTVSS VL: QIVLTQSPAIMSASPGEKVTMTCSASSSVTYMHWFQQKPGTSPKLWIYSTSILASGVPARFSGSGSGTSYSLTISRMEAEDAATYYCQQRTSYPLTFGTGTKLELK"
–,–,–,–,2 fold,"lead humanised variant VH5/VK4 anti-CTLA4 antibody (antibody, V domains shown) VH: QVQLVQSGAELKKPGASVKVSCKASGYTFTSYWINWIRQAPGQGLEWIGRIAPGSGTTYYNEVFKGRVTITVDKSTSTAYMELSSLRSEDTAVYFCARGDYGSYWGQGTLVTVSS VL: EIVLTQSPATLSLSPGERATLSCSASSSISYMHWFQQRPGQSPRRWIYDTSKLASGVPARFSGSGSGTDYTLTISSLEPEDFATYYCHQRTSYPLTFGQGTKLEIKR"
